Measurements reported in article PMC4109901, “Functional EF-Hands in Neuronal Calcium Sensor GCAP2 Determine Its Phosphorylation State and Subcellular Distribution In Vivo, and Are Essential for Photoreceptor Cell Integrity” (PLoS Genetics, 2014).
Numbering of substitutions follows the chain as printed.

B1: recombinant bGCAP2, mock-treated (unphosphorylated) (natural protein, bovine, UniProt P51177 1-204, looked up)
chain: MGQQFSWEEAEENGAVGAADAAQLQEWYKKFLEECPSGTLFMHEFKRFFKVPDNEEATQYVEAMFRAFDTNGDNTIDFLEYVAALNLVLRGTLEHKLKWTFKIYDKDRNGCIDRQELLDIVESIYKLKKACSVEVEAEQQGKLLTPEEVVDRIFLLVDENGDGQLSLNEFVEGARRDKWVMKMLQMDLNPSSWISQQRRKSAMF
notes: Cross-linked to magnetic beads for the pull-down; also called mock bGCAP2; recombinant wildtype bGCAP2
B2: recombinant phosphorylated bEF^−GCAP2 (natural protein, bovine, UniProt P51177 1-204, looked up)
chain: B1 chain with E80Q, E116Q, D158N
modifications: phosphorylated in vitro by PKG; Ser201 named as the site
notes: Cross-linked to magnetic beads for the pull-down
B3: recombinant phosphorylated bGCAP2 (natural protein, bovine, UniProt P51177 1-204, looked up)
chain: B1 chain
modifications: phosphorylated in vitro by PKG; Ser201 named as the site
notes: Cross-linked to magnetic beads for the pull-down; also called P-GCAP2
B4: recombinant bEF^−GCAP2, mock-treated (unphosphorylated) (natural protein, bovine, UniProt P51177 1-204, looked up)
chain: B1 chain with E80Q, E116Q, D158N
notes: Cross-linked to magnetic beads for the pull-down; also called mock bEF^−GCAP2; unphosphorylated bEF^−GCAP2

Target: the molecule itself
Test: SDS-PAGE and immunoblot; in vitro phosphorylation reactions (with or without cGMP, in EGTA) of purified recombinant GCAP2 resolved by 15% SDS-PAGE and immunostained for GCAP2; bands above the 25 kDa monomer

Binding result, binds:
B1
B2
B3
B4
